Test results: IntAct's records for PubMed 31515488

B1: E3 ubiquitin-protein ligase TRIM69 (Homo sapiens), Q86WT6 (parent)
chain: MEVSTNPSSNIDPGDYVEMNDSITHLPSKVVIQDITMELHCPLCNDWFRDPLMLSCGHNFCEACIQDFWRLQAKETFCPECKMLCQYNNCTFNPVLDKLVEKIKKLPLLKGHPQCPEHGENLKLFSKPDGKLICFQCKDARLSVGQSKEFLQISDAVHFFTEELAIQQGQLETTLKELQTLRNMQKEAIAAHKENKLHLQQHVSMEFLKLHQFLHSKEKDILTELREEGKALNEEMELNLSQLQEQCLLAKDMLVSIQAKTEQQNSFDFLKDITTLLHSLEQGMKVLATRELISRKLNLGQYKGPIQYMVWREMQDTLCPGLSPLTLDPKTAHPNLVLSKSQTSVWHGDIKKIMPDDPERFDSSVAVLGSRGFTSGKWYWEVEVAKKTKWTVGVVRESIIRKGSCPLTPEQGFWLLRLRNQTDLKALDLPSFSLTLTNNLDKVGIYLDYEGGQLSFYNAKTMTHIYTFSNTFMEKLYPYFCPCLNDGGENKEPLHILHPQ
B2: ATPase PAAT (Homo sapiens), Q9H8K7 (parent)
chain: METRTEDGGLTRRPTLASSWDVAGGALTHSLLLTRAGLGPGDFDWEELLAPPAPGQDLVILKRNHNNKDENPCFLYLRCGPDGGEEIASIGILSSARNMEVYLGEEYCGTSRGKNVCTVLDDSEHEKIILYKKNLKLESSTHACKIKLLSFGERQCVFISKVVVHMRSVFANSSTSSPALGSRIDLDKVQTIMESMGSKLSPGAQQLMDMVRCQQRNCIPIGEQLQSVLGNSGYKHMIGLQSSSTLGTLNKSSSTPFPFRTGLTSGNVTENLQTYIDKSTQLPGGENSTKLDECKVMPQNHSFLENDLKNAMASFLPKKVSDNSNIPNSELLPFLQNLCSQVNHLHVGNKTECQENITKHGERILGVGMEEQSICSYLEKILSKNMELMEKKLMDYIDQRIHELQEHIDDKIALLLDLLQNPNSPPTGIPLRHYDSGERLSNGER
partner: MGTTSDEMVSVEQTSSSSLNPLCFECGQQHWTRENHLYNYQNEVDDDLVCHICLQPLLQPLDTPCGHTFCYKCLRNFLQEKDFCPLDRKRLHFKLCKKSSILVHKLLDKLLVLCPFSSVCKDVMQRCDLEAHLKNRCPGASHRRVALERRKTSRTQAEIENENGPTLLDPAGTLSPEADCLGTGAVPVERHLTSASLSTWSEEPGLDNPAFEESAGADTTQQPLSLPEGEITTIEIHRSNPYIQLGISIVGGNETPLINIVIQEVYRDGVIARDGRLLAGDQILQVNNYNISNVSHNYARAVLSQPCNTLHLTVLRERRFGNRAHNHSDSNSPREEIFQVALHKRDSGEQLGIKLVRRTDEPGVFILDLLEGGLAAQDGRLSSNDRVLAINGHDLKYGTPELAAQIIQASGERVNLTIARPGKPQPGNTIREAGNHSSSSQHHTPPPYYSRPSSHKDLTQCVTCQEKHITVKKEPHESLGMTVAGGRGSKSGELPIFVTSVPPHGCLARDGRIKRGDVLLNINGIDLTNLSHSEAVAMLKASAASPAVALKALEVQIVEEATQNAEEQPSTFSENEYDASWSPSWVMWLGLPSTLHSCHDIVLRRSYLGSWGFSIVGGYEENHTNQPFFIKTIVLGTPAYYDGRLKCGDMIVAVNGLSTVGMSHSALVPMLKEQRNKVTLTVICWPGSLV
B3: Probable splicing factor YJU2B (Homo sapiens), P13994 (parent)
chain: MGERKGVNKYYPPDFNPEKHGSLNRYHNSHPLRERARKLSQGILIIRFEMPYNIWCDGCKNHIGMGVRYNAEKKKVGNYYTTPIYRFRMKCHLCVNYIEMQTDPANCDYVIVSGAQRKEERWDMADNEQVLTTEHEKKQKLETDAMFRLEHGEADRSTLKKALPTLSHIQEAQSAWKDDFALNSMLRRRFREKKKAIQEEEERDQALQAKASLTIPLVPETEDDRKLAALLKFHTLDSYEDKQKLKRTEIISRSWFPSAPGSASSSKVSGVLKKLAQSRRTALATSPITVGDLGIVRRRSRDVPESPQHAADTPKSGEPRVPEEAAQDRPMSPGDCPPETTETPKCSSPRGQEGSRQDKPLSPAGSSQEAADTPDTRHPCSLGSSLVADYSDSESE
partner: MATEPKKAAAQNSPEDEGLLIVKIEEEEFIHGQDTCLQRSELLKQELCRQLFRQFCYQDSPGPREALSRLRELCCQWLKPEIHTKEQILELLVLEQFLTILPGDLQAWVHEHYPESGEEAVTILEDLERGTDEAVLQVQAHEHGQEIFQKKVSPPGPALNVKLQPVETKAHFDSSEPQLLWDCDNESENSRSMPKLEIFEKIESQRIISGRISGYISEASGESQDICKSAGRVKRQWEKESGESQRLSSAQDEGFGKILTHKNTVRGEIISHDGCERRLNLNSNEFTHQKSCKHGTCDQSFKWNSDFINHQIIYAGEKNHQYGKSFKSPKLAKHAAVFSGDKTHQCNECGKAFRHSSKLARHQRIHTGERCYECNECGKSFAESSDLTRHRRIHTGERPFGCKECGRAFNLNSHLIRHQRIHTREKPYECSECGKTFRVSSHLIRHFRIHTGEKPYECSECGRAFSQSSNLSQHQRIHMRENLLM
B4: Phenazine biosynthesis-like domain-containing protein (Homo sapiens), P30039 (parent)
chain: MKLPIFIADAFTARAFRGNPAAVCLLENELDEDMHQKIAREMNLSETAFIRKLHPTDNFAQSSCFGLRWFTPASEVPLCGHATLASAAVLFHKIKNMNSTLTFVTLSGELRARRAEDGIVLDLPLYPAHPQDFHEVEDLIKTAIGNTLVQDICYSPDTQKLLVRLSDVYNRSFLENLKVNTENLLQVENTGKVKGLILTLKGEPGGQTQAFDFYSRYFAPWVGVAEDPVTGSAHAVLSSYWSQHLGKKEMHAFQCSHRGGELGISLRPDGRVDIRGGAAVVLEGTLTA
partner: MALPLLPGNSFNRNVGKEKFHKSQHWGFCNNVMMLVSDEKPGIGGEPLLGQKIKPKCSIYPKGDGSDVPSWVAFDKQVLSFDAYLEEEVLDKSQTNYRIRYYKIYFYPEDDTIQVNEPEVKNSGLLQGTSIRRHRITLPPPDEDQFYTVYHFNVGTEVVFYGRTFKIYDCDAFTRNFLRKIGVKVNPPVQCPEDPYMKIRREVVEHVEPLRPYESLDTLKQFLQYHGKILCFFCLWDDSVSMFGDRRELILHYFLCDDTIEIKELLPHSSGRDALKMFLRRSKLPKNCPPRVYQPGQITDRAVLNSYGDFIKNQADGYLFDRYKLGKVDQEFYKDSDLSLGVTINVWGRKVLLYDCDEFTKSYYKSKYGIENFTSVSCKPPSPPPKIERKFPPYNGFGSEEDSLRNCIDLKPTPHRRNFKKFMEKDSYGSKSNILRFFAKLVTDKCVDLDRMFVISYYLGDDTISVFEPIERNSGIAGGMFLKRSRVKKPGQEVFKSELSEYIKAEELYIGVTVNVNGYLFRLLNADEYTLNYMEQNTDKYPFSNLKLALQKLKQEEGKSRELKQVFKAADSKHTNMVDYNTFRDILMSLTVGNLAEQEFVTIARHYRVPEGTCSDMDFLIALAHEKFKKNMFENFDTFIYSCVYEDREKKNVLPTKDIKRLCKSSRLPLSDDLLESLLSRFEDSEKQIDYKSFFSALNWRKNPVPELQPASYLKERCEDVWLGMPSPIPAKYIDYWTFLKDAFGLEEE
B5: Phagosome assembly factor 1 (Homo sapiens), Q9BSU1 (parent)
chain: MLDLEVVPERSLGNEQWEFTLGMPLAQAVAILQKHCRIIKNVQVLYSEQSPLSHDLILNLTQDGIKLMFDAFNQRLKVIEVCDLTKVKLKYCGVHFNSQAIAPTIEQIDQSFGATHPGVYNSAEQLFHLNFRGLSFSFQLDSWTEAPKYEPNFAHGLASLQIPHGATVKRMYIYSGNSLQDTKAPMMPLSCFLGNVYAESVDVLRDGTGPAGLRLRLLAAGCGPGLLADAKMRVFERSVYFGDSCQDVLSMLGSPHKVFYKSEDKMKIHSPSPHKQVPSKCNDYFFNYFTLGVDILFDANTHKVKKFVLHTNYPGHYNFNIYHRCEFKIPLAIKKENADGQTETCTTYSKWDNIQELLGHPVEKPVVLHRSSSPNNTNPFGSTFCFGLQRMIFEVMQNNHIASVTLYGPPRPGSHLRTAELP

Variants of: B1
Conditions: with at5g1_human ATP5MC1, P05496
at5g1_human ATP5MC1, P05496, sequence (P05496 whole entry): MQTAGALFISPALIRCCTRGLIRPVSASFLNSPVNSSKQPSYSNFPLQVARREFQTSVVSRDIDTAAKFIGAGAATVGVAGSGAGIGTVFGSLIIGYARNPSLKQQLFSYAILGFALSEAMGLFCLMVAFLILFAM
For Q301H, the “effect of a mutation on the interaction” value was “with no effect”. In the case of I399F, the “effect of a mutation on the interaction” value is reported as “with no effect”. For N239K, the “effect of a mutation on the interaction” value was “disrupting interaction strength”.

Variants of: B1
Conditions: with maga4_human MAGEA4, P43358
maga4_human MAGEA4, P43358, sequence (P43358 whole entry): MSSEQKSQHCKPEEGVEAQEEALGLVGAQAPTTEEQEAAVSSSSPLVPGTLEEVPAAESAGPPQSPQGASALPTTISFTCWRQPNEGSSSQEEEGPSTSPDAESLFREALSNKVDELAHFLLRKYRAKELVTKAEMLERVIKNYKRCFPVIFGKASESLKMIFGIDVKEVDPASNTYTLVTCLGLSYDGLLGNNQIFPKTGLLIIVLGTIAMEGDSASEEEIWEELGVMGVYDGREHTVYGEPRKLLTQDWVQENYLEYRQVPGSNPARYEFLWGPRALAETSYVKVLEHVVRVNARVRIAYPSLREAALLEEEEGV
With Q301H the “effect of a mutation on the interaction” value was “with no effect”. With I399F the “effect of a mutation on the interaction” value was “with no effect”. In the case of N239K, the “effect of a mutation on the interaction” value is reported as “with no effect”.

Variants of: B2
Conditions: with lnx2_human LNX2, Q8N448
In the case of G8R, the “effect of a mutation on the interaction” value is reported as “with no effect”.

Variants of: B3
Conditions: with zn165_human ZNF165, P49910
With S22C the “effect of a mutation on the interaction” value was “with no effect”.

Variants of: B4
Conditions: with efhc2_human EFHC2, Q5JST6
In the case of H257R, the “effect of a mutation on the interaction” value is reported as “disrupting interaction strength”. In the case of A235T, the “effect of a mutation on the interaction” value is reported as “disrupting interaction strength”. With Y154C the “effect of a mutation on the interaction” value was “disrupting interaction strength”.

Variants of: B5
Conditions: with bcas3_human BCAS3, Q9H6U6
bcas3_human BCAS3, Q9H6U6, sequence (Q9H6U6 whole entry): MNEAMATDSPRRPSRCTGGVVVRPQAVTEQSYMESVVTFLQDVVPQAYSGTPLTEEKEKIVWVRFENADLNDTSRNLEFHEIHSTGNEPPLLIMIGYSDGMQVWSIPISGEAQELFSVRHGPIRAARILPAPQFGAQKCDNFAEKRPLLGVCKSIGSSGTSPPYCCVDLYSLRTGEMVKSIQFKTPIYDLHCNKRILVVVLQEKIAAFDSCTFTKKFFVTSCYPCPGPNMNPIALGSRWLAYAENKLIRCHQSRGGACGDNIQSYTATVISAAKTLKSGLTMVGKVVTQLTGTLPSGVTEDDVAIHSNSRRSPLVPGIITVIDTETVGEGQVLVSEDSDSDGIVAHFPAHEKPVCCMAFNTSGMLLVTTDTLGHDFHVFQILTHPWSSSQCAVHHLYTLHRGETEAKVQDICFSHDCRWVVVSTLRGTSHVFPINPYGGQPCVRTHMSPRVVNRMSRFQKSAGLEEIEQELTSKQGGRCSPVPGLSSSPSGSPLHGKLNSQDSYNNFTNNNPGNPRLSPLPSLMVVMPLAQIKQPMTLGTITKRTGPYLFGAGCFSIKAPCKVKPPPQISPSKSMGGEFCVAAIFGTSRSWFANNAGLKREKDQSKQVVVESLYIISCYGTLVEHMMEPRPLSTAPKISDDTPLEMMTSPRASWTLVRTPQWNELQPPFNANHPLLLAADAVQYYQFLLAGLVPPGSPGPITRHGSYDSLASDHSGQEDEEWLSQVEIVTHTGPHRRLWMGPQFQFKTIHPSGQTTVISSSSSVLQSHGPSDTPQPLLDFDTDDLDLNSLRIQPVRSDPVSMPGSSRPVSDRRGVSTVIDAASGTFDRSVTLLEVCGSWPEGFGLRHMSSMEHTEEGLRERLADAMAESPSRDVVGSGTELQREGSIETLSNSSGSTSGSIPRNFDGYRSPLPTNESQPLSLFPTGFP
For G13R, the “effect of a mutation on the interaction” value was “with no effect”.
